We go through two molecules from article PMC2642969 (Molecular cell, 2008).

Like-named read-outs stand apart in the source and are kept apart here.

Test [1] addresses T1, FLAG-dKDM4A (recombinant, Sf21) (Drosophila melanogaster, UniProt Q9V333 1-495).
T1 sequence (looked up): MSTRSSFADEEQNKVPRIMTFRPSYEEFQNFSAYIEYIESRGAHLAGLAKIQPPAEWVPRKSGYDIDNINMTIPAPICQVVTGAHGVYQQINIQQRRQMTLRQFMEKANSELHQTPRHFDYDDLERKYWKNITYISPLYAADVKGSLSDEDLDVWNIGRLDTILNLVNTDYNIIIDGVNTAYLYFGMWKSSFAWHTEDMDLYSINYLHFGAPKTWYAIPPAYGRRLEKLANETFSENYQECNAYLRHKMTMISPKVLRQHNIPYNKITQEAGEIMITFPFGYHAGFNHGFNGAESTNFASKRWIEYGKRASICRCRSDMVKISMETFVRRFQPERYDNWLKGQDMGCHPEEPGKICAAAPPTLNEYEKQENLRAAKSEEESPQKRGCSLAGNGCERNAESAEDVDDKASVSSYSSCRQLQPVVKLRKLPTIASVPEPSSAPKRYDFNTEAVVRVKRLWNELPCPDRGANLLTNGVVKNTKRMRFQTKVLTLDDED
Nature of the test: co-IP.

Test [2] deals with T1, FLAG-dKDM4A (recombinant, Sf21). Kind of test: co-IP. The source holds these as a separate data set.

B1: HA-HP1a (recombinant, full-length) (natural protein, Drosophila melanogaster, UniProt P05205 1-206, looked up)
chain: MGKKIDNPESSAKVSDAEEEEEEYAVEKIIDRRVRKGKVEYYLKWKGYPETENTWEPENNLDCQDLIQQYEASRKDEEKSAASKKDRPSSSAKAKETQGRASSSTSTASKRKSEEPTAPSGNKSKRTTDAEQDTIPVSGSTGFDRGLEAEKILGASDNNGRLTFLIQFKGVDQAEMVPSSVANEKIPRMVIHFYEERLSWYSDNED
Regarding B1, the binding result in test [1] is on record as “binds”.

B2: HA-HP1a-V26M (natural protein, Drosophila melanogaster, UniProt P05205 1-206, looked up)
chain: MGKKIDNPESSAKVSDAEEEEEEYAMEKIIDRRVRKGKVEYYLKWKGYPETENTWEPENNLDCQDLIQQYEASRKDEEKSAASKKDRPSSSAKAKETQGRASSSTSTASKRKSEEPTAPSGNKSKRTTDAEQDTIPVSGSTGFDRGLEAEKILGASDNNGRLTFLIQFKGVDQAEMVPSSVANEKIPRMVIHFYEERLSWYSDNED
Regarding B2, the binding result in test [2] is reported as “binds”.
